Target: T1, His-PKM2 (human, UniProt P14618 1-531)
T1 construct: Pyruvate kinase M2 (PKM2), human cDNA cloned into pET28a(+); also called His-tagged-PKM2; source: E. coli BL21, purified (Ni–agarose beads); not shown: His-tag, N-terminal, kept
Assay: pull-down; in vitro binding of His-PKM2 (2.5 μg) and GST-VDAC3, Ni–NTA agarose, western blot with anti-GST or anti-His antibody
Details: both partners purified

T1 sequence (P14618 whole entry): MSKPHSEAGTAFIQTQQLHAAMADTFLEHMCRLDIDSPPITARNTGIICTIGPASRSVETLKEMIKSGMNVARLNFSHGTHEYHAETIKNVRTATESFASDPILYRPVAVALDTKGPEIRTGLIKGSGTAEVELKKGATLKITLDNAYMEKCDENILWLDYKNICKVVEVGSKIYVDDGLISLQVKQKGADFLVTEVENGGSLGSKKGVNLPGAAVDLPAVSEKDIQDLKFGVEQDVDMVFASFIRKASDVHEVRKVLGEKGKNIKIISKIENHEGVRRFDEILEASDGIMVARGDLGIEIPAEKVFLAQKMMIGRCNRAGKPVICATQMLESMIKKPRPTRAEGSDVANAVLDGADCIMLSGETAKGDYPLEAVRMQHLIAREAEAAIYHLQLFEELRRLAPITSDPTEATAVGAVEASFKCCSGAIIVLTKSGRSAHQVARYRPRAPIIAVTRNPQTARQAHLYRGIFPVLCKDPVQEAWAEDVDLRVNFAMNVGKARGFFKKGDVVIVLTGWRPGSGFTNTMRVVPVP

binding result: binds
B1: GST-VDAC3 (natural protein, human, UniProt Q9Y277 1-283, looked up)
chain: MCNTPTYCDLGKAAKDVFNKGYGFGMVKIDLKTKSCSGVEFSTSGHAYTDTGKASGNLETKYKVCNYGLTFTQKWNTDNTLGTEISWENKLAEGLKLTLDTIFVPNTGKKSGKLKASYKRDCFSVGSNVDIDFSGPTIYGWAVLAFEGWLAGYQMSFDTAKSKLSQNNFALGYKAADFQLHTHVNDGTEFGGSIYQKVNEKIETSINLAWTAGSNNTRFGIAAKYMLDCRTSLSAKVNNASLIGLGYTQTLRPGVKLTLSALIDGKNFSAGGHKVGLGFELEA
notes: VDAC3, human cDNA cloned into pGEX-4T-1; also called GST-tagged-VDAC3; source: E. coli BL21, purified (GST agarose beads); the pull-down method also calls it in vitro translated; not shown: GST, N-terminal, kept
